How the values were obtained:
[1] = target: T1, LRP2 CR89 (human, UniProt P98164 1025-1102); experiment: solid-phase assay on coated CR protein, anti-RAP detection, A450
T1 construct: domain: CR89; also called YVWR; L2 CR89; not shown: N-terminal hexahistidine and S-peptide tags of pET30(+)a
Procedure: (§1) Data were plotted and fitted by non-linear regression with the assumption of a single binding site (GraphPad Prism). Kd values with standard deviations were derived from the regression analysis.
(§2) Solid phase binding assays-Purified, refolded CR protein (1 μg) was bound to Nunc Maxisorp™ 96-well plates in TBS pH 8 supplemented with 5 mM CaCl₂ (TBSC) overnight at 4° C. Wells were washed with TBSC and then blocked with TBSC containing 2% bovine serum albumin (BSA). […] Control wells contained no added ligand. As an additional control, to determine whether the absence of calcium affected binding, 10 mM EGTA was included in the incubation medium for some samples. […] Excess primary antibody was removed and wells washed before incubation with the secondary antibody, HRP-conjugated goat anti rabbit IgG (Bio-Rad). After washing, TMB substrate solutions (Bio-Rad) were added to detect HRP. Color development was stopped with 1N HCl. Absorption at 450 nm was measured with a microplate spectrophotometer (Molecular Devices). Data were plotted and Kd values derived by non-linear regression with the assumption of single-site binding (GraphPad Prism).

[2] = target: T2, LRP1 CR3-5 (human); experiment: solid-phase assay on coated CR protein, single-site non-linear fit
T2 construct: range 852-973; also called L1 CR3-5
T2 sequence (Q07954 852-973): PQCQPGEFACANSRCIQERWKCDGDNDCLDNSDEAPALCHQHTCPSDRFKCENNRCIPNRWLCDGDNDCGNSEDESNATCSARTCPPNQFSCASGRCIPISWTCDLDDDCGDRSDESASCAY
Procedure: as §1, §2

[3] = target: T2, LRP1 CR3-5; experiment: solid-phase assay; OD at the highest ligand concentration as percent of the highest OD of all ligands
Procedure: as §2

[4] = target: T1, LRP2 CR89; experiment: as above
Procedure: as §2

[5] = target: T1, LRP2 CR89; experiment: solid-phase assay on coated CR protein, single-site non-linear fit
Procedure: as §1, §2

[6] = target: T3, MAT CR12 (human, UniProt Q9Y5Y6 452-524); experiment: binding of truncated MatRAP1 forms to MAT CR12, relative signal under isomolar conditions
T3 construct: also called ST14 CR12; matriptase CR12
T3 sequence: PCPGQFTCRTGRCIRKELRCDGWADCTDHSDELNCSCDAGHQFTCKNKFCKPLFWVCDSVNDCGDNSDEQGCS
Procedure: as §2

[7] = target: T4, MAT CR23 (human); experiment: solid-phase binding assay; target not given, MAT CR23 is the pair MatRAP1 was selected on
T4 construct: range 487-566; also called ST14 CR23; matriptase CR23
T4 sequence (Q9Y5Y6 487-566): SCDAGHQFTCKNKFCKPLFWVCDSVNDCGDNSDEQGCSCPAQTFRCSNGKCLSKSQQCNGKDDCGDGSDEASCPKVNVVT
Procedure: as §2

T1 sequence (P98164 1025-1102): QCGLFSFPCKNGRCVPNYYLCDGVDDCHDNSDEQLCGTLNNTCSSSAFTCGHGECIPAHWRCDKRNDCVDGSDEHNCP

| Binder | binding result [1] | % max [3] | % max [4] | further results |
| --- | --- | --- | --- | --- |
| RAP d3 forward mutant E251K (ligand, The paragraph gives only the position; the change E251K follows from the mutagenic primers; not shown: N-terminal hexahistidine and S-peptide tags of pET30(+)a) LDRLRRVSHQGYSTEAEFEEPRVIDLWDLAQSANLTDKELEAFREELKHFKAKIEKHNHYQKQLEIAHEKLRHAESVGDGERVSRSREKHALLEGRTKELGYTVKKHLQDLSGRISRAR | no binding (tested: 100 nM) | 100% | 5% | Kd [2]: 7 nM |
| RAP d3 forward mutant E251K, K256A, K270E (ligand, also called triple mutant; not shown: N-terminal hexahistidine and S-peptide tags of pET30(+)a) LDRLRRVSHQGYSTEAEFEEPRVIDLWDLAQSANLTDKELEAFREELKHFKAKIEAHNHYQKQLEIAHEELRHAESVGDGERVSRSREKHALLEGRTKELGYTVKKHLQDLSGRISRAR | – | 2% | 40% | Kd [5]: 114 nM |
| RAP d3 forward mutant E251K, K270E (ligand, also called K270E in combination with E251K; not shown: N-terminal hexahistidine and S-peptide tags of pET30(+)a) LDRLRRVSHQGYSTEAEFEEPRVIDLWDLAQSANLTDKELEAFREELKHFKAKIEKHNHYQKQLEIAHEELRHAESVGDGERVSRSREKHALLEGRTKELGYTVKKHLQDLSGRISRAR | no binding (tested: 100 nM) | 4% | 2% | – |
| RAP d3 forward mutant H249Y (ligand, The paragraph gives only the position; the change H249Y follows from the mutagenic primers; also called single-site RAP d3 mutant at 249; not shown: N-terminal hexahistidine and S-peptide tags of pET30(+)a) LDRLRRVSHQGYSTEAEFEEPRVIDLWDLAQSANLTDKELEAFREELKYFEAKIEKHNHYQKQLEIAHEKLRHAESVGDGERVSRSREKHALLEGRTKELGYTVKKHLQDLSGRISRAR | no binding (tested: 100 nM) | 90% | 2% | Kd [2]: 28 nM |
| RAP d3 forward mutant K256A, K270E (ligand, also called K270E in combination with K256A; not shown: N-terminal hexahistidine and S-peptide tags of pET30(+)a) LDRLRRVSHQGYSTEAEFEEPRVIDLWDLAQSANLTDKELEAFREELKHFEAKIEAHNHYQKQLEIAHEELRHAESVGDGERVSRSREKHALLEGRTKELGYTVKKHLQDLSGRISRAR | no binding (tested: 100 nM) | 2% | 3% | – |
| RAP d3 forward mutant K270E (ligand, also called K270E alone; not shown: N-terminal hexahistidine and S-peptide tags of pET30(+)a) LDRLRRVSHQGYSTEAEFEEPRVIDLWDLAQSANLTDKELEAFREELKHFEAKIEKHNHYQKQLEIAHEELRHAESVGDGERVSRSREKHALLEGRTKELGYTVKKHLQDLSGRISRAR | no binding (tested: 100 nM) | 4% | 2% | – |
| MatRAP1 truncated by 10 amino acids at the N-terminus (ligand, Range derived: d3 starts at 201 and 10 residues were removed; also called MatRAP1 N-10; not shown: N-terminal hexahistidine and S-peptide tags of pET30(+)a) GYSTEAEFEEPRVIDLWDLAQSANLTDKELEAFREELKHFGAKIERHNHYQKQLEIAHEWLRHAESVGDGERVSRSREKHALLEGRTKELGYTVKKHLQDLSGRISRAR | – | – | – | fnctn (relative binding signal under isomolar conditions) [6]: 0.1 |
| MatRAP1 truncated by 31 amino acids at the N-terminus (ligand, Range derived from the number of residues removed; also called MatRAP1 N-31; not shown: N-terminal hexahistidine and S-peptide tags of pET30(+)a) SANLTDKELEAFREELKHFGAKIERHNHYQKQLEIAHEWLRHAESVGDGERVSRSREKHALLEGRTKELGYTVKKHLQDLSGRISRAR | – | – | – | fnctn (relative binding signal under isomolar conditions) [6]: 0.35 |
| MatRAP1 truncated by 52 amino acids at the N-terminus (ligand, Range derived from the number of residues removed (52 total); also called MatRAP1 N-52; not shown: N-terminal hexahistidine and S-peptide tags of pET30(+)a) KIERHNHYQKQLEIAHEWLRHAESVGDGERVSRSREKHALLEGRTKELGYTVKKHLQDLSGRISRAR | – | – | – | binding result [6]: no binding |
| MatRAP1 N-42 without the C-terminal linker and affinity tag (ligand, Range derived; not shown: N-terminal hexahistidine and S-peptide tags of pET30(+)a) FREELKHFGAKIERHNHYQKQLEIAHEWLRHAESVGDGERVSRSREKHALLEGRTKELGYTVKKHLQDLSGRISRAR | – | – | – | fold increase in affinity over MatRAP1 N-42 [7]: 2 fold |

From patent US20100210517A1 (RAPTOR PHARMACEUTICAL, published 2010)
